# Paper PMC6128652, “Structure of the Cladosporium fulvum Avr4 effector in complex with (GlcNAc)6 reveals the ligand-binding mechanism and uncouples its intrinsic function from recognition by the Cf-4 resistance protein” (PLoS Pathogens, 2018)
# Entries after “also recorded” stand apart in the source; their conditions may differ.
# Key:
# [1] = tested on: germlings of Trichoderma viride; assay: In vitro protection assay of T. viride germlings against chitinases; assay type: cell-based; details: 5 μM protein with chitinases and β-1,3-glucanases, 6–8 h
# Description: The ability of the WT-CfAvr4 and of ChBD mutants to protect against chitinases was evaluated in in vitro protection assays conducted as described before. Briefly, spores of T. viride (3∙10^3) were pre-germinated overnight at room temperature in 100 μl of half-strength PDB medium in 96 well plates. The following day, 5 μM of WT-CfAvr4 or ChBD mutants were mixed with 7.5 units of Zymolyase (Zymo Research cat. no. E1004) and 0.2 units of bacterial chitinases (Sigma-Aldrich cat. no. C6137) and the mixture was added to the microtitre plate wells containing the pre-germinated spores in a final volume of 150 μl. Plates were incubated at 25°C for 6–8 h before evaluating under the microscope fungal growth and the ability of the proteins to provide protection against chitinases. Zymolase has β-1,3 glucanase and β-1,3-glucan laminaripentaohydrolase activity and is added to the mixture in order to remove the surface glucans from the fungal cell wall and thus expose the underlying chitin layer.
# [2] = tested on: Cf-4; assay: Agrobacterium tumefaciens transient transformation assay (ATTA): co-expression with Cf-4 in Nicotiana benthamiana leaves; assay type: in vivo; details: N. benthamiana, three cell density ratios 0.5:1, 1:1, 2:1
# Description: The Agrobacterium tumefaciens transient transformation assay (ATTA) was used for the transient co-expression into leaves of Nicotiana benthamiana of Cf-4 with the WT-CfAvr4 and the mutants thereof tested in this study. Briefly, N. benthamiana plants were grown in a growth chamber with 16 h of artificial light and 70% humidity, at 25°C for 4 weeks. The true mature form of the WT-CfAvr4 (i.e. between Lys30-Gln115) and of the mutants thereof were singly cloned into the binary expression vector pICH47742 downstream of the PR1A signal sequence of Nicotiana tabacum for targeted secretion into the apoplast, and under the control of CaMV 35S promoter and NOS terminator. The tomato Cf-4 was cloned into pMOG800 as descripted before. Binary vector plasmids were transformed into A. tumefaciens strain GV3101 by electroporation. For the ATTA assay, agrobacteria transformed with pMOG800:Cf-4 was grown in 10mL LB-mannitol medium (LB medium with 10 g/L mannitol) amended with 50 μg/mL kanamycin and 25 μg/mL rifampicin, whereas agrobacteria transformed with pICH47742:WT-CfAvr4 or pICH4774:CfAvr4-mutants were grown in LB-mannitol amended with 100 μg/mL carbenicillin and 25 μg/mL rifampicin. All cultures were incubated at 28°C for 2 days, after which period they were pelleted at 2800g for 15 min, re-suspended in MMAi medium (5 g/L Murashige and Skoog basal salts, 20 g/L sucrose, 10 mM MES, and […]) at an optical cell density (A600) of 2.0, and further incubated for 2–4 h at room temperature. Agroinfiltrations were performed by mixing agrobacteria containing pMOG800:Cf-4 with agrobacteria containing pICH47742_WT-CfAvr4 or pICH47742:CfAvr4-mutants at three different ratios of optical cell densities, i.e. A6000.5:A6001.0, A6000.5:A6000.5, and A6000.5:A6000.25 of. The mixture of agrobacteria was infiltrated into the leaves of N. benthamiana plants using a 1 mL syringe and the induction of an HR in the infiltrated leaf sectors was evaluated at 5 days post-infiltrations. Control infiltrations were made using only the pMOG800:Cf-4 transformed agrobacteria and the agrobacteria containing pICH47742:CfAvr4 or the mutants thereof without mixing the two cultures, at cell densities of A6000.25, A6000.5, and A6001.0.
# [3] = tested on: subtilisin; assay: Subtilisin treatment (resistance against proteolytic degradation); assay type: in vitro ADME; parameters: key to Stability (Subtilisin assay): S: stable; PU: partially unstable; details: for Stability (Subtilisin assay): 500 ng/μL subtilisin, 30 min, room temperature; for susceptibility to proteolytic degradation by subtilisin: 500 ng/μl subtilisin, band of mature CfAvr4 on SDS-PAGE
# Description: The WT-CfAvr4 and selected mutants thereof were exposed to the non-specific protease subtilisin in order to determine their resistance against proteolytic degradation. Treatments with subtilisin were made as previously described with minor modifications. Briefly, 40 μM of the E. coli-produced CfAvr4 and the selected CfAvr4 mutants were mixed with 10 mM of calcium chloride and 500 ng/μL of subtilisin (Sigma-Aldrich) in a total volume of 15 μL. Samples were incubated for 30 min at room temperature, after which period they were denatured by mixing with 10 mM PMSF and SDS-PAGE loading buffer, and heating at 98°C for 10 min. Digestion products were visualized on an SDS-PAGE after staining with Coomassie blue.
# [4] = tested on: Cf-4 immune receptor; assay: Pure protein infiltrations into tomato leaves of cv Purdue 135 (+ Cf-4), hypersensitive response; assay type: in vivo; details: 5 dpi
# Text: Tomato seeds were obtained from the Tomato Genetic Resource Center (TGRC) at UC Davis. WT-CfAvr4 and mutants thereof with single point mutations at selected amino acids were produced and purified from E. coli Rosetta-gami B cells as description above. […]
# [5] = Isothermal titration calorimetry (ITC) of CfAvr4 variants with chitin hexasaccharide; assay type: binding; details: ITC; for effect of the mutation on binding to (GlcNAc)6: compared with WT-CfAvr4; for increase in the Kd relative to WT-CfAvr4: (GlcNAc)6
# Description: A stock solution of the monomer of N-acetylglucosamine was prepared by dissolving the dry powder in a buffer containing 10 mM Bis-Tris, pH 6.5, 100 mM NaCl to a concentration of 0.100 g/L using analytic techniques. Standard solution of 0, 0.010, 0.025, 0.050, 0.075 g/L were prepared by serial dilutions. Using glass test tubes and pipets, 100 μL of each standard was mixed with 300μL of concentrated sulfuric acid and vortexed for 10 sec to mix. Solutions were incubated at RT for 10 min and then placed on ice to stop the reaction. […] Analytically prepared solution of the di- and tri-saccharide scaled linearly to the calibration curve. To determine the concentration of the chitin hexasaccharide solutions used in ITC, the solutions were diluted into the dynamic range of the calibration curve (S12 Fig) and subjected to the above procedure.
# All ITC experiments were performed on a TA Instruments low volume NanoITC with a 186uL reaction cell and a reference cell filled with degassed Milli-Q grade water. Reactions were run in a buffer containing 10mM Bis-Tris, pH 6.5, 100 mM NaCl. The reservoir solution was filled with protein solution and continuously stirred while Chitin hexasaccharide solutions titrated in 2.5μL aliquots for 19 injections, with an initial 1μL injection, for a total injection volume of 48.5μL. The carbohydrate solutions were made by dissolving the dry powder in buffer to a concentration of 20mM (confirmed using methods described above) and then diluted to the working concentration using the final buffer exchange flow through to match the buffers as closely as possible. The integrated heats, after correction for the heat of dilution were analyzed using the NanoAnalyze software from […]. An individual binding site model was used to fit the binding isotherm. All experiments were replicated a minimum of three times.
Molecule,"protection of fungal hyphae against chitinases, fungal growth [1]",HR on transient co-expression with Cf-4 [2],Stability (Subtilisin assay) [3],susceptibility to proteolytic degradation by subtilisin [3],Cf-4-mediated HR after protein infiltration ([4]; 5 μg/ml),Cf-4-mediated HR after protein infiltration ([4]; 10 μg/ml),Cf-4-mediated HR after protein infiltration ([4]; both 5 μg/ml and 10 μg/ml),effect of the mutation on binding to (GlcNAc)6 [5],increase in the Kd relative to WT-CfAvr4 [5]
"D102A (protein, left off: 6x His (two), N-terminal, state not stated) KAPKTQPYNPCKPQEVIDTKCMGPKDCLYPNPDSCTTYIQCVPLDEVGNAKPVVKPCPKGLQWNDNVGKKWCAYPNLSTCPVKTPQ",essentially failed to protect the fungal hyphae against chitinases; also recorded: fail to protect the fungal hyphae,strong and similar in intensity HR,PU,vulnerable to proteolytic degradation; also recorded: decreased intensity of this band,weak HR response,elicited an HR,only partially trigger an HR,abolished all detectable binding,–
"N93A (protein, left off: 6x His (two), N-terminal, state not stated) KAPKTQPYNPCKPQEVIDTKCMGPKDCLYPNPDSCTTYIQCVPLDEVGNAKPVVKPCPKGLQWADNVGKKWCDYPNLSTCPVKTPQ",–,strong and similar in intensity HR,PU,more susceptible to degradation; also recorded: almost complete disappearance of the band,–,–,failed to elicit an HR; also recorded: do not; also recorded: did not elicit an HR,–,six
"D94A (protein, left off: 6x His (two), N-terminal, state not stated) KAPKTQPYNPCKPQEVIDTKCMGPKDCLYPNPDSCTTYIQCVPLDEVGNAKPVVKPCPKGLQWNANVGKKWCDYPNLSTCPVKTPQ",–,strong and similar in intensity HR,PU,more susceptible to degradation; also recorded: almost complete disappearance of the band,–,–,failed to elicit an HR; also recorded: do not; also recorded: did not elicit an HR,–,five
"M51A (protein, left off: 6x His (two), N-terminal, state not stated) KAPKTQPYNPCKPQEVIDTKCAGPKDCLYPNPDSCTTYIQCVPLDEVGNAKPVVKPCPKGLQWNDNVGKKWCDYPNLSTCPVKTPQ",–,strong and similar in intensity HR,–,–,–,–,strong and equal in intensity HR; also recorded: strong and equally in intensity necrosis,did not affect the Kd substantially,–
"P53A (protein, left off: 6x His (two), N-terminal, state not stated) KAPKTQPYNPCKPQEVIDTKCMGAKDCLYPNPDSCTTYIQCVPLDEVGNAKPVVKPCPKGLQWNDNVGKKWCDYPNLSTCPVKTPQ",–,strong and similar in intensity HR,–,–,–,–,strong and equal in intensity HR; also recorded: strong and equally in intensity necrosis,did not affect the Kd substantially,–
"Y67F (protein, left off: 6x His (two), N-terminal, state not stated) KAPKTQPYNPCKPQEVIDTKCMGPKDCLYPNPDSCTTFIQCVPLDEVGNAKPVVKPCPKGLQWNDNVGKKWCDYPNLSTCPVKTPQ",–,strong and similar in intensity HR,–,–,–,–,strong and equal in intensity HR; also recorded: strong and equally in intensity necrosis,did not affect the Kd substantially,–
"P87A (protein, left off: 6x His (two), N-terminal, state not stated) KAPKTQPYNPCKPQEVIDTKCMGPKDCLYPNPDSCTTYIQCVPLDEVGNAKPVVKPCAKGLQWNDNVGKKWCDYPNLSTCPVKTPQ",–,strong and similar in intensity HR,–,–,–,–,strong and equal in intensity HR; also recorded: strong and equally in intensity necrosis,did not affect the Kd substantially; also recorded: does not have an effect on the binding thermodynamics,–
"Y103F (protein, left off: 6x His (two), N-terminal, state not stated) KAPKTQPYNPCKPQEVIDTKCMGPKDCLYPNPDSCTTYIQCVPLDEVGNAKPVVKPCPKGLQWNDNVGKKWCDFPNLSTCPVKTPQ",–,strong and similar in intensity HR,–,–,–,–,strong and equal in intensity HR; also recorded: strong and equally in intensity necrosis,did not affect the Kd substantially,–
"N95A (protein, left off: 6x His (two), N-terminal, state not stated) KAPKTQPYNPCKPQEVIDTKCMGPKDCLYPNPDSCTTYIQCVPLDEVGNAKPVVKPCPKGLQWNDAVGKKWCDYPNLSTCPVKTPQ",–,strong and similar in intensity HR,–,–,–,–,strong and equal in intensity HR; also recorded: strong and equally in intensity necrosis,–,three
